Experimental data from patent US20240209084A1 (CYTOARM, published 2024).
One block for each binder: values may come before it.

Tests used:
CD33 = target: T1, CD33 (human, UniProt P20138 18-364); assay: flow cytometry on HL-60 cells (CD33+), FITC goat anti-human IgG Fab
T1 construct: whole, on cells; also called CD33^+ human acute myeloid leukemia (HL-60)
Method: (§1) Samples were analyzed with FITC conjugated Goat anti-Human IgG Fab antibody and flow cytometry.

HGFR = target: T2, HGFR (human, UniProt P08581 25-1390); assay: flow cytometry on A549 cells (HGFR+), FITC goat anti-human IgG Fab
T2 construct: whole, on cells; also called cMET; hepatocyte growth factor receptor
T2 sequence (P08581 25-1390): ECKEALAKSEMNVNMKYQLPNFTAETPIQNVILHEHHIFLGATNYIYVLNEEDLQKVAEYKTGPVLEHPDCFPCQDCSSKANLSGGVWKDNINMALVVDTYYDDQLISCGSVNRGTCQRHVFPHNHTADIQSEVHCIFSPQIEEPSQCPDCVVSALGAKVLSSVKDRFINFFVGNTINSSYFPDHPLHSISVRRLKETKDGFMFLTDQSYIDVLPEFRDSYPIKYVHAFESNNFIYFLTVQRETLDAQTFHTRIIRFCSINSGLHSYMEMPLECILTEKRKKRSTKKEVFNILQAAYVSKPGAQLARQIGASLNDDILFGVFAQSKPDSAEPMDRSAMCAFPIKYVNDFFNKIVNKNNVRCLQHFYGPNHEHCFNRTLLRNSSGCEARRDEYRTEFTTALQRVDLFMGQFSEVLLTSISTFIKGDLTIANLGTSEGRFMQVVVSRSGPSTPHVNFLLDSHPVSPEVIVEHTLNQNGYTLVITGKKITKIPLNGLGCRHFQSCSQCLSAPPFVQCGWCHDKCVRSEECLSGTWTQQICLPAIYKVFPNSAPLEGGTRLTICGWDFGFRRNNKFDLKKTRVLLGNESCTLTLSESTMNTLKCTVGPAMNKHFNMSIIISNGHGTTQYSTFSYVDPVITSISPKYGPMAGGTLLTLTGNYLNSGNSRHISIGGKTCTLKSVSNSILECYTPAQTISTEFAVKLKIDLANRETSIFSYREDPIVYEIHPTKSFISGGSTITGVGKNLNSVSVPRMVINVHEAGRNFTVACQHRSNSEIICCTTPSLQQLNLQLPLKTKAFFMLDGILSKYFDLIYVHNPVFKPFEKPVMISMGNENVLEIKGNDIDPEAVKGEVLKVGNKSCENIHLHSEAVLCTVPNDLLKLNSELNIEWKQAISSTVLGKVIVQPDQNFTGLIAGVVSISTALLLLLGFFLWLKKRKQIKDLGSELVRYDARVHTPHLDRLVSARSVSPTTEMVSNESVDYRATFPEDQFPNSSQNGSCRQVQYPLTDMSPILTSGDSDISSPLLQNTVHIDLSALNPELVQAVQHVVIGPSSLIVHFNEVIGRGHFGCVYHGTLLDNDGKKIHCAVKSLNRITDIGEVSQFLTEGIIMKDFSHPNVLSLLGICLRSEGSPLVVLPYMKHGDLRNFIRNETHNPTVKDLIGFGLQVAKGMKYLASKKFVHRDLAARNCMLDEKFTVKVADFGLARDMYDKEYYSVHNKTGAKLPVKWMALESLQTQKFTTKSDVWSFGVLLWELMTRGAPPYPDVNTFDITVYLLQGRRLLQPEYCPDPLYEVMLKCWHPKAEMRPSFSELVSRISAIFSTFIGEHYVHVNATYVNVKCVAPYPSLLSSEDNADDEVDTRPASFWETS
Method: as §1

CD47 = target: T3, CD47 (human, UniProt Q08722 19-323); assay: flow cytometry on MCF-7/HER2 cells (CD47+), FITC goat anti-human IgG Fab
T3 construct: whole, on cells; also called CD47^+ breast cancer (MCF7/HER2)
Method: as §1

T1 sequence (P20138 18-364): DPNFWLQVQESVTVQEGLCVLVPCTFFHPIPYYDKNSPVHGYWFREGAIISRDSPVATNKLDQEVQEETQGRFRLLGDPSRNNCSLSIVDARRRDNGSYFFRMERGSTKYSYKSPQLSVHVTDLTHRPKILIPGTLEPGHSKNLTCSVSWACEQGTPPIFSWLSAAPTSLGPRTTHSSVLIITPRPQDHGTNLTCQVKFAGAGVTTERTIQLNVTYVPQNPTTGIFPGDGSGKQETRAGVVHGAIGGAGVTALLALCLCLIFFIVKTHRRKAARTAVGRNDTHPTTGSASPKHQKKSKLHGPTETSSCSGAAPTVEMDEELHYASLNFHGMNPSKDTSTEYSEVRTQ

binding result (CD33): binds
B1: CTA03Fab/CTAT11scFv (bispecific antibody)
heavy: EVQLLESGGGLVQPGGSLRLSCAASGFTFSSFPMAWVRQAPGKGLEWVSTISTSGGRTYYRDSVKGRFTISRDNSKNTLYLQMNSLRAEDTAVYYCAKFRQYSGGFDYWGQGTLVTVSSASTKGPSVFPLAPSSKSTSGGTAALGCLVKDYFPEPVTVSWNSGALTSGVHTFPAVLQSSGLYSLSSVVTVPSSSLGTQTYICNVNHKPSNTKVDKKVEPKSCGGGSGGGEVQLVQSGAEVKKPGSSVKVSCKASGYTITDSNIHWVRQAPGQSLEWIGYIYPYNGGTDYNQKFKNRATLTVDNPTNTAYMELSSLRSEDTAFYYCVNGNPWLAYWGQGTLVTVSSGGGGSGGGGSGGGGSDIQLTQSPSTLSASVGDRVTITCRASESLDNYGIRFLTWFQQKPGKAPKLLMYAASNQGSGVPSRFSGSGSGTEFTLTISSLQPDDFATYYCQQTKEVPWSFGQGTKVEVK
light: DIQLTQPNSVSTSLGSTVKLSCTLSSGNIENNYVHWYQLYEGRSPTTMIYDDDKRPDGVPDRFSGSIDRSSNSAFLTIHNVAIEDEAIYFCHSYVSSFNVFGGGTKLTVLRQPKAAPSVTLFPPSSEELQANKATLVCLISDFYPGAVTVAWKADSSPVKAGVETTTPSKQSNNKYAASSYLSLTPEQWKSHRSYSCQVTHEGSTVEKTVAPTECS
notes: also called antiCD3Fab/anti-CD33scFv

binding result (HGFR): binds
B2: CTA03Fab/CTAT12scFv (bispecific antibody)
heavy: EVQLLESGGGLVQPGGSLRLSCAASGFTFSSFPMAWVRQAPGKGLEWVSTISTSGGRTYYRDSVKGRFTISRDNSKNTLYLQMNSLRAEDTAVYYCAKFRQYSGGFDYWGQGTLVTVSSASTKGPSVFPLAPSSKSTSGGTAALGCLVKDYFPEPVTVSWNSGALTSGVHTFPAVLQSSGLYSLSSVVTVPSSSLGTQTYICNVNHKPSNTKVDKKVEPKSCGGGSGGGEVQLVESGGGLVQPGGSLRLSCAASGYTFTSYWLHWVRQAPGKGLEWVGMIDPSNSDTRFNPNFKDRFTISADTSKNTAYLQMNSLRAEDTAVYYCATYRSYVTPLDYWGQGTLVTVSSGGGGSGGGGSGGGGSDIQMTQSPSSLSASVGDRVTITCKSSQSLLYTSSQKNYLAWYQQKPGKAPKLLIYWASTRESGVPSRFSGSGSGTDFTLTISSLQPEDFATYYCQQYYAYPWTFGQGTKVEIK
light: DIQLTQPNSVSTSLGSTVKLSCTLSSGNIENNYVHWYQLYEGRSPTTMIYDDDKRPDGVPDRFSGSIDRSSNSAFLTIHNVAIEDEAIYFCHSYVSSFNVFGGGTKLTVLRQPKAAPSVTLFPPSSEELQANKATLVCLISDFYPGAVTVAWKADSSPVKAGVETTTPSKQSNNKYAASSYLSLTPEQWKSHRSYSCQVTHEGSTVEKTVAPTECS
notes: also called antiCD3Fab/anti-HGFRscFv

binding result (CD47): binds
B3: CTA03Fab/CTAT13scFv (bispecific antibody)
heavy: EVQLLESGGGLVQPGGSLRLSCAASGFTFSSFPMAWVRQAPGKGLEWVSTISTSGGRTYYRDSVKGRFTISRDNSKNTLYLQMNSLRAEDTAVYYCAKFRQYSGGFDYWGQGTLVTVSSASTKGPSVFPLAPSSKSTSGGTAALGCLVKDYFPEPVTVSWNSGALTSGVHTFPAVLQSSGLYSLSSVVTVPSSSLGTQTYICNVNHKPSNTKVDKKVEPKSCGGGSGGGQVQLVQSGAEVKKPGASVKVSCKASGYTFTNYNMHWVRQAPGQRLEWMGTIYPGNDDTSYNQKFKDRVTITADTSASTAYMELSSLRSEDTAVYYCARGGYRAMDYWGQGTLVTVSSGGGGSGGGGSGGGGSDIVMTQSPLSLPVTPGEPASISCRSSQSIVYSNGNTYLGWYLQKPGQSPQLLIYKVSNRFSGVPDRFSGSGSGTDFTLKISRVEAEDVGVYYCFQGSHVPYTFGQGTKLEIK
light: DIQLTQPNSVSTSLGSTVKLSCTLSSGNIENNYVHWYQLYEGRSPTTMIYDDDKRPDGVPDRFSGSIDRSSNSAFLTIHNVAIEDEAIYFCHSYVSSFNVFGGGTKLTVLRQPKAAPSVTLFPPSSEELQANKATLVCLISDFYPGAVTVAWKADSSPVKAGVETTTPSKQSNNKYAASSYLSLTPEQWKSHRSYSCQVTHEGSTVEKTVAPTECS
notes: also called antiCD3Fab/anti-CD47scFv
